Experimental data published in publication PMC7948506.

What was measured:
[1] = target: Glycine max (soybean) heme oxygenase-1 (GmHO-1) (Glycine max (soybean)); experiment: ITC; 800 uM Fd in the syringe into 40 uM apo-GmHO-1 (no heme) in the cell; 25 °C; 20 mM Tris-HCl pH 7.0, 20 mM NaCl; one set of sites model; single measurement
[2] = target: Glycine max (soybean) heme oxygenase-1 (GmHO-1) (Glycine max (soybean)); experiment: ITC; 800 uM Fd in the syringe into 40 uM holo-GmHO-1 (heme bound) in the cell; 25 °C; 20 mM Tris-HCl pH 7.0, 20 mM NaCl; one set of sites model; single measurement

## soybean ferredoxin (Fd) (natural protein)
[1]
  Kd: 14.7 µM
  dH: 3.3 kcal/mol
  stoichiometry N: 1
[2]
  Kd: 5.3 µM
  dH: 2.6 kcal/mol
  stoichiometry N: 1
